For 20 sequences, protein production results are on record in a protein production outcome set (Wang et al. 2014).

This data set in a line: label from the status in PepcDB records.
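Also: failed if final PepcDB status was selected cloned or expressed and not failed if soluble or beyond.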

“MNTLIIAKKEIVSAFRDKRTFLFMLAFPIVLIMILGTALTNAFDQQAAVGEVRVLYKDNSDGAFSQGFKTFVKEAKTSGVHFKKVLSDMDEKQEIKQGNYDAYLEIENSGIKLYQMDKNSMKNSIIQGMLTAFANRYNAAAEIIKAAPEQAGAVLGDAPGDNYIKETSLSSDRKPSSMDYYAVAMTTLIALYSALSASYLIRGERLRKTADRLIAAPVHKGEIFAGKLIGNLVTNGLCIFAVVAVSKYVFKAYWGEHLGLVAAVLFSIVLFAVCLGLGVSYLTRTGEAAVAIINVLIPLVAFFGGAYFPVDDAEGVLALITDLSPLAWTNEAIMNIIFADDLAAGLPAILLNIGLSLLFLLIAVVSLQRREGL”: the protein production entry was “failed”.

Turning to “MNTLKKAFEILDFIVKNPGDVSVSEIAEKFNMSVSNAYKYMVVLEEKGFVLRKKDKRYVPGYKLIEYGSFVLRRFNIRDIAHDHLVDIMKRTGETVHLILKDGFEGVYIDKVEGEQSIPMVSRLGMKVDLYSTASGKSILAFVPEKELKEYLKIVELKPKTPNTITNPRVLKRELEKIRKRGYAVDNEENEIGIMCVGVPIFDHNGYPVAGVSISGVARKFTEEKIEEYSDVLKEKAEEISRKLGY”, the protein production entry is “not failed”.

For “MNTLRTAMLLAAMTALFMGVGFLIGGSGGMMIALLIAAGTNLFSYWNADKMVLSMNRAVEVDEKNAPEYYAIVQALAKQAGLPMPRTYLIDNPQPNAFATGRNPQNAAVAASTGLLQRLTHEEVAAVMAHELAHVQHRDTLTMTIVATFAGAISMLGNFAFFLGGNRDNNPFGFVGVLAAMIVAPFAAMIVQMAVSRTREYEADRRGAEICGHPLWLASALDKIARGAERIPNPDAERNPAMAHLFIINPLHGERMDNLFSTHPSTDNRIAALQEMAQQMAGGTQAAPRPTPRQAGEQQPSGPWGQAPQAEQPAEPERPKANPWGRNPTGPKGRWS”, the protein production result was “failed”.

Turning to “MNTRPFYFGLIFIAIIAILANYLGNTDFSHHYHISALIIAILLGMAIGNTIYPQFSTQVEKGVLFAKGALLRTGIVLYGFRLTFGDIADVGLNAVVTDAIMLISTFFFTALLGIRYLKMDKQLVYLTGAGCSICGAAAVMAAEPVTKAESHKVSVAIAVVVIFGTLAIFTYPLFYTWSQHLINAHQFGIYVGSSVHEVAQVYAIGENIDPIVANTAVISKMIRVMMLAPFLLMLSWLLTRSNGVSENTSHKITIPWFAVLFIGVAIFNSFDLLPKELVKLFVEIDSFLLISSMAALGLTTQASAIKKAGLKPFVLGILTYLWLVVGGFLVNYGISKLI”, the protein production entry is reported as “failed”.

Consider “MNTVCTACMATNRLPEERIDDGAKCGRCGHSLFDGEVINATAETLDKLLQDDLPMVIDFWAPWCGPCRSFAPIFAETAAERAGKVRFVKVNTEAEPALSTRFRIRSIPTIMLYRNGKMIDMLNGAVPKAPFDNWLDEQLSRDPNS”, for which the protein production entry is given as “not failed”.

For “MNVDVLIGEILTLSMMAFALGMDAFSVGLGMGMAKLKRNQVFQIGVIIGLFHVIMPLGGMIAGQFLSGALGALAGYIGGALLLVLGIQMIVASFNKSGEQIISPHGFGLFVFAVGVSLDSFSVGLSLGLYGTKPILTIFLFGLFSMVLTWAGLLLGKKVQTWLGAYSEALGGAILLSFGLKLLLPI”, the protein production entry is “failed”.

As to “MNVFARSSVLAAEMIDVFDRTHTEKELVFQSKELCRDFIHSRITREGLSWSKVELDLPEPRGVLVDVSVVLLKLGDELECMRPYVYRNIAKQLNISVSVEAVVSDAFLSVATEVIAMGITWGKVVAIYAVAAGLAVDCVRLGHPVMVHTIVDSLGEFVRRSLVPWLKKRGGWVDILKCVVNMDSRAHVHWLSTAVLTWREFIKTMYVYLTK”, the protein production result is given as “failed”.

Consider “MNVINETANVLKLETGSVTSAKGFSAVGIHTGVKRKRKDLGAIVCEVPASSAAVYTLNKVQAAPLKVTQESIAVEGKLQAMIVNSGIANACTGKRGLDDAYTMRAVGAETFHIPEHYVAVTSTGVIGEFLPMDVITNGIRQLKPEATIEGAHAFNEAILTTDTVEKHTCYQTIVNGKTVTVGGVAKGSGMIHPNMATMLSFVTTDANIDHGHLQGALSAITNETFNRITVDGDTSTNDMVVVMASGLAENEALTPEHPDWANFYKALQLACEDLAKQIARDGEGATKLIEVEVTGAANDQEAGMVAKQIVGSDLVKTAIYGADANWGRIICAIGYSGCEVNQETIDIAIGPIVTLKQSEPTGFSEEEATAYLKEADPVKISVNLHIGNGTGKAWGCDLTYDYVRINAGYRT”, for which the protein production result is listed as “not failed”.

On to “MNVIYPLAVPKGRRLSCEVCEAPAERMCTACTVTYYCGPVHQKADWDSIHAKICQLLIPLRTTMPFYNSEEERQHGLQQLQRRQKHLIEFCYTVAQKYLFEGRHEDAVPAALHSLRFRMNVHGLSSVELVPAYLLLAEASLGLGRIVQAEEYLSQAQWTVLKSTDCSNATHSLLHRNLGLLYIAKKNLDEARYHLANDIYFASCAYGTEDIRTSGGYFHLANIFYGLKKMELADTLYTKVSEIWYTYLNSHYQALLEARSQQTDLLGKQFVNDTGLDEAQEAEAIRILTSTLIIQESTSTKAPQKSILILKTLSILYYLMLECSKAKEYAMKALSLAETYVSEEEQRFIQELLSVISAEEKQP”, for which the protein production result is reported as “failed”.

With “MNVLRRFHAWRNQAPLWWWVGLRMSALAVVTMMVIAFGMWCYFNLRYSLILSNVPAEPRAEISQLIEQPRANQARLWELFQRYYDIENFLPGLANPDWWMLGAMMTISVPVILFCGLLASRPLSRQFSQVAFAAHRVSDGDFGARAQVVRGAPDELTALADDFNTMSGRLQQYERELRDSSAMLAHELRTPLNAAMGRVQGMLDDVFPREPEQLRLVHRQLEQINRLIGDLHLVSLARAGQLVLEPESVELRELVAERIEWAGPALREAQMTIHYPTHPALRLHADRHRLGQVLSILIDNALRYAAAGKLLEIEVRRDGTGVQLTVGDRGPGVAPAQLPHLLDRFWRADSSRARHSGGSGLGLAIASAICQAHDGQLVVSNRPGGGLLASVQLPLGR”, the protein production entry is “failed”.

In the case of “MNVLSLGSSSGVVWGRVPITAPAGAATGVTSRADAHSQMRRYAQTGPTAKLSSAPMTTMWGAPLHRRWRGSRLRDPRQAKFLTLASLKWVLANRAYTPWYLVRYWRLLRFKLANPHIITRGMVFLGKGVEIHATPELAQLEIGRWVHIGDKNTIRAHEGSLRFGDKVVLGRDNVINTYLDIEIGDSVLMADWCYICDFDHRMDDITLPIKDQGIIKSPVRIGPDTWIGVKVSVLRGTTIGRGCVLGSHAVVRGAIPDYSIAVGAPAKVVKNRQLSWEASAAQRAELAAALADIERKKAAR”, the protein production result was “failed”.

For “MNVPILPTISTSCIVISAILVAIGWALIWKRQVHKHKNIMLWAAFFALTFFIIYAARTIFIGNTAFGGPSSIKVYYTIFLVFHIILATVGGVLGLIQIILAFKDKLHIHRKIGPWASIIWFFTAITGVAVYVLLYVLYPGGETTSLLKATLGL”, the protein production entry was “failed”.

As for “MNWSIPNILTVLRLLAAPGVAVMFLYFHRPWADWFALTLFILAAVTDFFDGYLARLWKQESKFGAMLDPIADKAMVVIALVIITGYSGMNPWLILPVTLILFREVFVSGLREFLGAKASLLKVTKLAKWKTTAQMVAIAILFLGTGLEHLEGIARQGMTWEQYARAVSAGEADPIRSCGMHGCSSYATWLGLALIWIAAALTFITGWDYFRKALPYLKDEK”, the protein production result is recorded as “not failed”.

With “MNYAFVVQARLGSTRLPGKILKPFYGNQSILDLMVHKLSAISNIPVIIATTNSVINEPIEKKALALGVKCFRGEENDVLKRFIDVAEYFDIQGIFRICSDNPFLDVHAARQLVEIAMKSCNDYISFDIDGTPSIKTHFGFWGEFVTLDALKRVIGFTDDLLYREHVTNYIYSHPELFNIQWISGSPVVSKHHNIRLTIDTLEDFSVAQRIYRDLQEKRVEISIEVIVDYVRRHAEYIQLMKQQIKKNSKLEHHHHHH”, the protein production result is reported as “not failed”.

As for “MNYDDPKKKVGRNIKRLRLKAGIKSQAALAELCGWKSQSRVGNYEAGTRAVSAIDAETLAKVLNVTPAEILYGENNKDDDFVSMPSAQYSSGPYEEEDPFQLFKPKQELQNAEWHAGFELWDGDTPLRDDEVALPFYREVELAAGSGSTFVQENGGCKLRFAKSTLKKSRVEPSNAACVTVSGNSMLPVLRHGTTVGVDTSKKSIIDGEMYAIDHDGMLRVKMLYRTPGGGIRIKSYNNDEFPDEFIPPEKASDIKIIGWVFWWSVLNVWNN”, the protein production entry was “failed”.

Take “MNYDMSSYFEDPEFKEALAKYEGMVENHTPAYFEADELIDIAEYYTLKGRHKDADKAIDLTLQLHPENTDALVFRIRSLMLQNKKEEAKVVAQLIANSTDRECRFLQADMLMEEDRIEEAEEIFKQLVMDEEYEVDTLLDIIQDYTNANQEEYAGQWVDCLFAHSDMQTLPKTNQRLRDVLCDYYSTFNKPDLAIPYLNMTLNEYPYSIEHWNELGKCHLQQCQYEEANEALDFALAIDDENTDSLTLKAFGYHQAGNLKESCDYYLRLANVSKNKTKAYLALAQIYLEMRDHASAISYIEKLINRKSGLTDYELAELYSDTALCHAYLGHTENGYKYINQALELNEHDAEIRIAAGRFFTIEAQKSDISEEEQENNLRNAEHQFTRALEFTPKEERFDVLFKIGSLYFDEHNFEYANQYFELINKEFPEDADATYFFLAYGYYHQQESASFMHYLAKIRKEIPDMYATMGTGDTILMTDTYFNEALRAIKEDVSTGKINLNKYL”: the protein production result was “failed”.

For “MNYECLIGVLSCLLVALPKGNCHSISGLNSTLNLPEIRGDQFLYFGFGSNMLIKRIHIQNPSAVRIGPALLPDYRLDFALESAGWSGSVATIVPTQGDHVWGTLWKIDLSNLPDIDSQEGVSQGIYEPRTVYVKLHGESESTPARAYLLTKQPESNLYELPKDSIPLSRQPSKTYLQCLVKGAIESSVPEDYVQRLRSIKHNGQVNSYLERKLELGGVTL”, the protein production result is given as “failed”.

On to “MNYEIIDCIDSGTEYCPCHLAESGNCILCSQLNGKDFCDCVNWKGVCIYQEYTWNHNKAKKERSECICKIIKREEIDNNLIVLTIFIRKKLAEDLLYPGSYVFLRPTKSSRYYSSPISIMEASSDENIIKVIIEVKGIKTKSINELKEKDDIVLKGPYWNGVLGLKNIHSAKEGISLIIARGIGEAPIVPIMKKLYSNGNKVVVIADRGKFKANLIDKYLEEFSSETYNFNTLNKDGELPEDFKDFLLNFIRYNKVNLIHISGPNILTSKILDVVDEDIKISCSNNAKMCCGEGICGACSNIYDDDKMKRMCKVQIDPRYLFKGLRSI”, for which the protein production entry is given as “failed”.

With “MNYFPDEVIEHVFDFVASHKDRNSISLVCKSWHKIERFSRKEVFIGNCYAINPERLIRRFPCLKSLTLKGKPHFADFNLVPHEWGGFVHPWIEALARSRVGLEELRLKRMVVTDESLDLLSRSFANFKSLVLVSCEGFTTDGLASIAANCRHLRELDLQENEIDDHRGQWLNCFPDSCTTLMSLNFACLKGETNVAALERLVARSPNLKSLKLNRAVPLDALARLMSCAPQLVDLGVGSYENEPDPESFAKLMTAIKKYTSLRSLSGFLEVAPLCLPAFYPICQNLISLNLSYAAEIQGNHLIKLIQLCKRLQRLWILDSIGDKGLAVVAATCKELQELRVFPSDVHGEEDNNASVTEVGLVAISAGCPKLHSILYFCKQMTNAALIAVAKNCPNFIRFRLCILEPHKPDHITFQSLDEGFGAIVQACKGLRRLSVSGLLTDQVFLYIGMYAEQLEMLSIAFAGDTDKGMLYVLNGCKKMRKLEIRDSPFGNAALLADVGRYETMRSLWMSSCEVTLGGCKRLAQNSPRLNVEIINENENNGMEQNEEDEREKVDKLYLYRTVVGTRKDAPPYVRIL”, the protein production result is given as “failed”.

Regarding “MNYKELLEFNDYAMDLTIRMAHHSTAIENNPLSLAETISILTTEYIPREMPQRAFFEVKNYQNMLFFLLENLNKGQSVDSFFIRELHGILMNFLLPNKGAFKTTDNTILGASFETTPIFKCLWL”, the protein production entry is “failed”.
